The source of these data is the Immune Epitope Database (IEDB).

A word on the pKd: it is −log10 of the Kd, conventionally taken in molar units. As usually defined, the pIC50 is the IC50 on a negative log10 scale, so that one unit is a factor of ten. The low end stands for a large IC50, the high end for a small IC50.

For one test, the target named is HLA-A*30:01. Nature of the test: IEDB peptide-MHC binding, purified MHC/competitive/radioactivity; filed as Kd, often an IC50 or EC50 that approximates it; ≥ and ≤ were set here for values at or beyond the usual limits of such assays.
The next test addresses HLA-B*44:02. The description is as above. The settings on record: source organism: Dengue virus 2 Jamaica/1409/1983.
In a further test the target is HLA-B*40:01. Nature of the test: IEDB peptide-MHC binding, purified MHC/direct/fluorescence; filed as Kd, often an IC50 or EC50 that approximates it; ≥ and ≤ were set here for values at or beyond the usual limits of such assays.
The target in the next test is HLA-B*51:01. The test is described as follows: IEDB peptide-MHC binding, purified MHC/competitive/radioactivity; filed as Kd, often an IC50 or EC50 that approximates it; ≥ and ≤ were set here for values at or beyond the usual limits of such assays. The following applies: source organism: Dengue virus 2 Jamaica/1409/1983.
The target of a further test is HLA-B*53:01. The test is described as above.
The target of the next test is HLA-B*35:01. The description is as above.
For test [1], the target named is HLA-A*11:01. The test is described as follows: IEDB peptide-MHC binding, purified MHC/direct/fluorescence; filed as Kd, often an IC50 or EC50 that approximates it; ≥ and ≤ were set here for values at or beyond the usual limits of such assays.
The next test addresses HLA-A*03:01. The test is described as follows: IEDB peptide-MHC binding, purified MHC/competitive/radioactivity; filed as Kd, often an IC50 or EC50 that approximates it; ≥ and ≤ were set here for values at or beyond the usual limits of such assays. The settings on record: source organism: Dengue virus 2 Jamaica/1409/1983.
For test [2], the target named is HLA-A*11:01. The description is as above. The following applies: source organism: Dengue virus 2 Jamaica/1409/1983.
The next test has as its target HLA-A*02:01. Nature of the test: IEDB peptide-MHC binding, purified MHC/competitive/fluorescence; ≥ and ≤ were set here for values at or beyond the usual limits of such assays. The following applies: source organism: Zaire ebolavirus.
Test [3] addresses HLA-A*24:02. Described as above.
A further test has as its target HLA-A*02:06. The test is described as follows: IEDB peptide-MHC binding, purified MHC/competitive/radioactivity; filed as Kd, often an IC50 or EC50 that approximates it; ≥ and ≤ were set here for values at or beyond the usual limits of such assays. The following applies: source organism: Vaccinia virus WR.
The target in another test is HLA-A*02:02. The test is described as above. The following applies: source organism: Vaccinia virus WR.
Another test deals with HLA-A*02:03. The test is described as above. The following applies: source organism: Vaccinia virus WR.
Test [4] has as its target HLA-A*01:01. Nature of the test: IEDB peptide-MHC binding, purified MHC/direct/fluorescence; filed as Kd, often an IC50 or EC50 that approximates it; ≥ and ≤ were set here for values at or beyond the usual limits of such assays. The following applies: source organism: Salmonella enterica subsp. enterica serovar Typhimurium.
For another test, the target named is HLA-A*23:01. Nature of the test: IEDB peptide-MHC binding, purified MHC/competitive/radioactivity; filed as Kd, often an IC50 or EC50 that approximates it; ≥ and ≤ were set here for values at or beyond the usual limits of such assays.
The target in the next test is HLA-A*30:02. The test is described as above.
In test [5] the target is HLA-A*24:02. The description is as above.
The next test deals with HLA-B*46:01. The test is described as follows: IEDB peptide-MHC binding, purified MHC/competitive/fluorescence; filed as Kd, often an IC50 or EC50 that approximates it; ≥ and ≤ were set here for values at or beyond the usual limits of such assays. The following applies: source organism: Yellow fever virus.
Test [6] deals with HLA-A*01:01. The test is described as follows: IEDB peptide-MHC binding, purified MHC/competitive/radioactivity; filed as Kd, often an IC50 or EC50 that approximates it; ≥ and ≤ were set here for values at or beyond the usual limits of such assays.
[7] abbreviates: source organism: Vaccinia virus WR.
Setting [8] is: source organism: Dengue virus 2 Jamaica/1409/1983.
The mark [9] stands for this setting: source organism: Dengue virus 4 Philippines/H241/1956.
Setting [10] is: source organism: Zaire ebolavirus.
Where [11] appears, read: source organism: Sudan ebolavirus.
[12] abbreviates: source organism: Dengue virus 1 Brazil/97-11/1997.
The mark [13] stands for this setting: source organism: Dengue virus 3 Martinique/1243/1999.

pIC50, pKd: −log10 of the molar value.

As for KVKKLNRCA, the negative logarithm of the Kd (pKd) with HLA-A*30:01 (setting [7]) was 8.51.

As for KVKWLQNSV, the negative-log Kd (pKd) in the test with HLA-A*30:01 (source organism: Vaccinia virus Copenhagen) was 9.30.

With LENLMWKQI, in the test with HLA-B*44:02, the pKd is 7.65.

In the test with HLA-B*40:01 (source organism: Mycobacterium tuberculosis), LEVPAMGVL gave a pKd of 7.60.

As to LPIRYQTPAI, the negative-log Kd (pKd) with HLA-B*51:01 was 7.16; with HLA-B*53:01 (setting [8]), 7.87; with HLA-B*35:01 (setting [8]), 7.28.

Consider LTLKGTSYK, for which the pKd with HLA-A*11:01 [1] (source organism: Yellow fever virus) was 8.25.

Turning to LTSRATWAK, the negative-log Kd (pKd) in the test with HLA-A*30:01 (setting [8]) is 6.75; with HLA-A*03:01, 7.23; with HLA-A*11:01 [2] it was 7.35.

For MPTVIEELEK, the figures for the negative-log Kd (pKd) with HLA-B*53:01 (setting [9]) and in the test with HLA-B*35:01 (setting [9]) were 5.27 and 5.58, respectively.

Consider MRTNFLIKF, for which the pIC50 was ≤ 3.17 with HLA-A*02:01 and 5.38 with HLA-A*24:02 [3] (setting [10]).

On to MTSTRTIIL, for which the negative logarithm of the Kd (pKd) with HLA-A*30:01 (setting [7]) is 6.57; with HLA-A*02:06 it was 5.17; with HLA-A*02:02, 5.87; in the test with HLA-A*02:03, 6.08.

Consider NSRHNAQHK, for which, in the test with HLA-A*01:01 [4], the pKd was ≤ 4.70.

Take NYEAGEWAE: the pIC50 with HLA-A*24:02 [3] (setting [10]) was 4.87.

For the sequence NYTENTSSY, the negative logarithm of the IC50 (pIC50) with HLA-A*24:02 [3] (setting [11]) is 5.21.

For the sequence PFARLLNLS, the pIC50 in the test with HLA-A*02:01 is ≤ 3.51; in the test with HLA-A*24:02 [3] (setting [10]) it was 4.80.

PFIRNPNKM had a negative logarithm of the IC50 (pIC50) with HLA-A*24:02 [3] (setting [7]) of 7.18.

Regarding QPENLEYTI, the pKd with HLA-B*53:01 (source organism: Dengue virus 2 16681-PDK53) was 7.55.

Turning to RGRIGRNPA, the pKd with HLA-A*30:01 (setting [9]) was 7.49.

As for RHERGRPLLF, in the test with HLA-A*23:01 (setting [9]), the negative logarithm of the Kd (pKd) is 6.61.

With RLKDYQHFV, the pKd with HLA-A*30:01 (setting [7]) is 9.40.

In the test with HLA-A*24:02 [3] (setting [11]), RRWGGTCRI gave a negative-log IC50 (pIC50) of 6.15.

On to RTLAKEGIK, for which the negative-log Kd (pKd) is 6.66 with HLA-A*30:01 (setting [8]) and 7.52 in the test with HLA-A*03:01.

On to RVFNEYGFV, for which, in the test with HLA-A*30:01 (setting [7]), the pKd is 6.85.

In turn, SEFCDMLRL had a negative-log Kd (pKd) with HLA-B*40:01 (source organism: Mammarenavirus guanaritoense) of 7.07.

With SIGKMLESTY, the pKd with HLA-A*30:02 (setting [9]) was 5.81.

For STRVGMGEA, in the test with HLA-A*30:01 (setting [12]), the pKd was 8.30.

As for SVKCTHPLV, the pKd in the test with HLA-A*30:01 (setting [7]) was 9.01.

On to SWHYDQDHPY, for which the pKd in the test with HLA-A*30:02 (setting [8]) was ≤ 4.16.

SYNDYFNVL had a negative-log IC50 (pIC50) in the test with HLA-A*24:02 [3] (source organism: Vaccinia virus) of 7.01.

In the case of SYTQMCDHRL, the negative-log Kd (pKd) with HLA-A*24:02 [5] (setting [12]) is 6.74.

In the test with HLA-B*46:01, TAVDFGNSY gave a pKd of 6.93.

Regarding TPKGPKVKY, the pKd in the test with HLA-A*11:01 [1] (source organism: SARS-CoV1) was ≤ 4.34.

As to TYQNKVVKV, the negative-log Kd (pKd) with HLA-A*23:01 (setting [13]) was 5.19.

In the case of VSSWEEVPY, the pKd in the test with HLA-A*01:01 [6] (setting [12]) was 6.57; with HLA-A*30:02 (setting [12]), 5.73.

VTRKHMILV: the negative-log Kd (pKd) in the test with HLA-A*30:01 (setting [9]) is 7.71.

With VTTWENVPY, the pKd with HLA-A*01:01 [6] (setting [13]) is 6.23; in the test with HLA-A*30:02 (setting [13]), 7.96.

Take VTYKCPLLV: the pKd with HLA-A*01:01 [6] (source organism: Dengue virus 4 Dominica/814669/1981) is 5.66.

As to WFFDLPLPW, the pKd with HLA-A*24:02 [5] (setting [13]) is 7.21; in the test with HLA-A*23:01 (setting [13]), 7.62.

For the sequence WFFDLPLPWT, the negative logarithm of the Kd (pKd) in the test with HLA-A*30:01 (setting [13]) was 4.79.

As to WVIILFQRT, the pIC50 with HLA-A*24:02 [3] (setting [10]) was ≤ 2.70.

As for YTDFPCQYV, the negative logarithm of the Kd (pKd) with HLA-A*01:01 [6] (source organism: Homo sapiens) is 8.74.

Consider YTRVLKPSV, for which the pKd in the test with HLA-A*30:01 (setting [7]) is 6.13.

Regarding YWVSNASGNI, the negative-log Kd (pKd) with HLA-A*23:01 (setting [8]) is 5.88.

On to YYMATLKNVT, for which, in the test with HLA-A*24:02 [5] (setting [9]), the negative logarithm of the Kd (pKd) was 5.81.
